Measurements taken from patent US20250145690A1 (US Dept. of Health and Human Services, published 2025).
Changes are numbered by the printed parent chain.

Columns and labels:
Experiment in all cases: bead flow cytometry, AUC minus CD4
[1] = target: T1, HCoV-229E spike protein (Sino Biological 40605-V08B) (HCoV-229E, UniProt P15423 16-1115)
T1 sequence: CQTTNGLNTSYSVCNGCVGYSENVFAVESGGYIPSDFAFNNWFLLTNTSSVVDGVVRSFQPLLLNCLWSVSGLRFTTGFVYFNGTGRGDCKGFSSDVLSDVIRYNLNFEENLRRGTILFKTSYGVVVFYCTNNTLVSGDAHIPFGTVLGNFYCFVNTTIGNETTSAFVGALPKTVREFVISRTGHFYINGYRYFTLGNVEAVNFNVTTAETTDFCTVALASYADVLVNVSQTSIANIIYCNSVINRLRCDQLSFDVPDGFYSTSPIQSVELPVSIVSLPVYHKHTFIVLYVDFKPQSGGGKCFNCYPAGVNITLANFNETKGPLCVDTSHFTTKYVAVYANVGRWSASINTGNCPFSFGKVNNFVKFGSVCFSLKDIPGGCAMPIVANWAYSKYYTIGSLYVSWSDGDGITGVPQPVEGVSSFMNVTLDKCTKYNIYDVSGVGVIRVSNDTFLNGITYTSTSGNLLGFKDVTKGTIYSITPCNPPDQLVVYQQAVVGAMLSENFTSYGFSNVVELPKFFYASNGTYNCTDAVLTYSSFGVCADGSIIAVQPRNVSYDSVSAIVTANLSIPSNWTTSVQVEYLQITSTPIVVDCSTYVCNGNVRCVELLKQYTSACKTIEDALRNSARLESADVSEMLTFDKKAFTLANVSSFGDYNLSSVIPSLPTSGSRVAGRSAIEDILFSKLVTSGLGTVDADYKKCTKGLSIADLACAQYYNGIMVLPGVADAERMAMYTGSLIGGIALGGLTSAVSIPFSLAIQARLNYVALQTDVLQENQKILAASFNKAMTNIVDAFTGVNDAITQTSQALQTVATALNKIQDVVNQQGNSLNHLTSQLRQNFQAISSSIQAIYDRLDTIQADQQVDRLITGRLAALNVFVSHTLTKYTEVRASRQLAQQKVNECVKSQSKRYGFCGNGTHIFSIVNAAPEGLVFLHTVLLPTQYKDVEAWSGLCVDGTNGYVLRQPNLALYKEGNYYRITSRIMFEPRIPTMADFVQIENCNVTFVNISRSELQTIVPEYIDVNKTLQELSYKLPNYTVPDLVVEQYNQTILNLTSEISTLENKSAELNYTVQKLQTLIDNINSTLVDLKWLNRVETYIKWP

[2] = target: T2, HCoV-NL63 spike protein (Sino Biological 40604-V08B) (HCoV-NL63, UniProt Q6Q1S2 19-1296)
T2 sequence: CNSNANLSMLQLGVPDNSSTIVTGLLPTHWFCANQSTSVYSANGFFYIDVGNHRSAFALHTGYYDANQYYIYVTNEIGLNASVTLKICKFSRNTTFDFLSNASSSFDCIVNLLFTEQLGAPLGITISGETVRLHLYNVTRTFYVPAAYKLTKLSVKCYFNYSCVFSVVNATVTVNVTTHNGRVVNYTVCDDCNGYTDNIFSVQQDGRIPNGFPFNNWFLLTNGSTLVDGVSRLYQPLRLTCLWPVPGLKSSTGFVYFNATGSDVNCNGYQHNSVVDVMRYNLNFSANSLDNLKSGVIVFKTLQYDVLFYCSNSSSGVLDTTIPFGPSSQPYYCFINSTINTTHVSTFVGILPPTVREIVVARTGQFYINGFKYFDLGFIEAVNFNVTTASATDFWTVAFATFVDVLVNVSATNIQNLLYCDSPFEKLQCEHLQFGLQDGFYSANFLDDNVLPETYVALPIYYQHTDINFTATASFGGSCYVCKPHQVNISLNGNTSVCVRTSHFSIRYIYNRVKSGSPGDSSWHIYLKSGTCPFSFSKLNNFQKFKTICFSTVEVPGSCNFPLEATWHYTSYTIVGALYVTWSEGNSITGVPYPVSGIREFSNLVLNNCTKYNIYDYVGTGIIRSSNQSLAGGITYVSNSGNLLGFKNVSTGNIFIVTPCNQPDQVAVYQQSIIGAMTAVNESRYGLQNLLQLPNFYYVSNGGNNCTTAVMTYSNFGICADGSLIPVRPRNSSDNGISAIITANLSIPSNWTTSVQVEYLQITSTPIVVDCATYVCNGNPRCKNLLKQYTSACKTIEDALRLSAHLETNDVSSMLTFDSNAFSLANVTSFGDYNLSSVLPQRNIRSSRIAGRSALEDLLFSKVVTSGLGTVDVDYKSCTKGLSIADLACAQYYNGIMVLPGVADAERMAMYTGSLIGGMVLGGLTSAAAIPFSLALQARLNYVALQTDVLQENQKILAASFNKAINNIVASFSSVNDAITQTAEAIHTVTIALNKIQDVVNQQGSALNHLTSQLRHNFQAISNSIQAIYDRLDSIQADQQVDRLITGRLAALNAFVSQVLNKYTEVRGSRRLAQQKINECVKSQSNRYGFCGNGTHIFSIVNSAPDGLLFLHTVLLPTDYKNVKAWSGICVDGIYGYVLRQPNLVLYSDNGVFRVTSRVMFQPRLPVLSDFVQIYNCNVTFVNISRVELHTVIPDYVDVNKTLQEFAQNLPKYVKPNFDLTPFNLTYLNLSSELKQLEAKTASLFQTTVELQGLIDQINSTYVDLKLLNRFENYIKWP

[3] = target: SARS-CoV-2 spike receptor binding domain (RBD), recombinant (SARS-CoV-2, UniProt P0DTC2 319-541)
[4] = target: SARS-CoV-2 spike N-terminal domain (NTD), recombinant (SARS-CoV-2, UniProt P0DTC2 14-305)

Measured: binding result

B1: COV49-03 (antibody, V domains shown)
VH: DVQLLESGGGLVQPGGSRRLSCAASGFTFSNYAMSWVRQAPGKGLEWVSAISGGGATTYYADSVQGRFTMSRDNSNNTLYLQMSSLRAEDTAVYYCTKGAFYDILSSIIVEGDYWGQGTLVTVSS
VL: DVVLTQSPLSLPITLGQPASISCRSSQSLVFSDGNTYLNWFQQRPGQSPRRLIYKVSNRDSGVPDRFSGSGSGTDFTLKISRVEAEDVGVYYCMQGTHWLSITFGQGTRLEIK
no binding (tested: 200 µg/mL): [1] | [2] | [3] | [4]

B2: COV49-05 (antibody, V domains shown)
VH: EVQLLESGGGLAQPGGSLRLSCVASGFSFNDYAMTWVRQAPGKGLEWVSAVSSGGQTTYSTDSVKGRFTISRDNSKNMLYLQMNSLRAEDTAVYYCVKGAFYNILSSIIVEGDYWGQGTLVTVSS
VL: B1 VL with D1G, I13V, K55Q, S61P
no binding (tested: 200 µg/mL): [1] | [2] | [3] | [4]

B3: COV49-04 (antibody, V domains shown)
VH: EVQLLESGGGLVQPGGSLRLSCATSGFTFSSYAMTWVRQAPGKGLEWVSAISGGGATTYSTDSVKGRFTTSRDNSKNTLYLQMNNLRAEDTALYYCAKGAFYNILSSIIVEGDYWGQGTLVTVSS
VL: B1 VL with L4M, P12S, I13V, N35D, K55R, E111D
no binding (tested: 200 µg/mL): [1] | [2] | [3] | [4]

B4: COV49-30 (antibody, V domains shown)
VH: EVQLLESGGGLVQPGGSLRVSCTVSGFTFSDYSMSWVRQAPGKGLDWVSAISGTGETAYYADFVKGRFTSSRDNSKNTVYLQMNSLRGEDTAVYYCVKGVFYNILSSIIVEGDYWGQGTLVTVSS
VL: B1 VL with D1G, L4M, I13V, N58K, K79T
no binding (tested: 200 µg/mL): [1] | [2] | [3] | [4]

B5: COV49-18 (antibody, V domains shown)
VH: B4 VH with T23A, D31N, S33A, T54S, A58R, S70I, V79L, V100A
VL: B1 VL with L4M, I13V, N58K
no binding (tested: 200 µg/mL): [1] | [2] | [3] | [4]

B6: COV49-07 (antibody, V domains shown)
VH: B4 VH with D46E, V79L, S85T, V100A
VL: B1 VL with D1G, L4M, I13V, N58E, K79T
no binding (tested: 200 µg/mL): [1] | [2] | [3] | [4]

B7: COV49-47 (antibody, V domains shown)
VH: B2 VH with T35A, S53G, I70T, M78T, S85G, T91A, Y114N
VL: B1 VL with D1G, I13V, K55Q, S61P
no binding (tested: 200 µg/mL): [1] | [2] | [3] | [4]

B8: COV49-23 (antibody, V domains shown)
VH: B2 VH with L20I, T35A, Q39R, S53G, I70T, M78T, S85G, T119A
VL: B1 VL with D1G, I13V, K55Q, S61P
no binding (tested: 200 µg/mL): [1] | [2] | [3] | [4]

B9: COV49-33 (antibody, V domains shown)
VH: B2 VH with N30D, A40P, S53G, I70T, M78T, A88G
VL: B1 VL with D1V, I13V, I21V, K55Q, S61P
no binding (tested: 200 µg/mL): [1] | [2] | [3] | [4]

B10: COV49-28 (antibody, V domains shown)
VH: B2 VH with E1G, R19K, Q39R, A40P, T58S, M78T, N84S, V93I
VL: B1 VL with D1G, I13V, N35K, K55Q, S61P
no binding (tested: 200 µg/mL): [1] | [2] | [3] | [4]

B11: COV49-06 (antibody, V domains shown)
VH: EVQLLESGGGLVRPGGSLRLSCAASGFTFTNYAMSWVRQAPGKGLEWVSAISGGDGRTSYYADSVKGRFTSSRDNSKNTLYLQMNSLRAEDTAVYYCAKGAFYNILSSIIVEGDYWGQGTLVTVSS
VL: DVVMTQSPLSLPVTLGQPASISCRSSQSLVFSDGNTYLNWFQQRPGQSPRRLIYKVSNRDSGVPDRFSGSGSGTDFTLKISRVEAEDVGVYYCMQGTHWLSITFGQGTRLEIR
no binding (tested: 200 µg/mL): [1] | [2] | [3] | [4]
